In data set [1] the test system is full length human vWF binding to lyophilized platelets. Kind of data set: Full length human von Willebrand Factor platelet binding assay (FACS). In kind it is cell-based. As to conditions: 5 nM full length human vWF, lyophilized platelets, botrocetin; for Inhibition of full length hVWF binding in FACS assay, IC50 range: both bounds in nM. On the procedure:
The amount of vWF bound to fixed platelets can be measured with an antibody to vWF. The fluorescence signal from bound antibody incubated with a fluorescein conjugated secondary antibody is then detected and quantified by flow cytometry. The ability of an aptamer of the invention to block vWF binding to platelets is correlated with a reduction in fluorescence signal.
Aptamer potency to block human vWF binding to lyophilized platelets was assessed by flow cytometric analysis. Titrations of aptamers (0 nM, 0.1 nM to 1000 nM) were pre-incubated briefly with 5 nM of full length human vWF in FACS buffer (PBS plus 0.5% bovine serum albumin) at room temperature in a volume of 50 uL. Another 50 uL containing 5 uL of lyophilized platelets plus 1 uL of 0.1 U/uL of botrocetin in FACS buffer was added to aptamer/vWF. This reaction was allowed to proceed for 15 minutes at 37 degrees C. after which 200 uL of FACS buffer was added. Platelets were collected by a 6 minute spin at 1470 RCF and the supernatant was discarded. The pellets were resuspended in 100 uL of FACS buffer containing a 1:100 dilution of anti-vWF antibody and were incubated at room temperature for 30 minutes. After dilution with 200 uL of FACS buffer, the platelets were spun at 1470 RCF for 6 minutes and the supernatant was discarded. The pellets were resuspended in a 1:100 solution of anti-IgG2a-FITC antibody and were incubated in the dark for 30 minutes at room temperature. The entire 100 uL was diluted into 200 uL of FACS buffer and analyzed immediately by flow cytometric analysis in the FACSCAN. Artifactual data from contaminating debris was eliminated from the analysis by drawing a gate around the population of single and aggregated platelets. Mean fluorescent intensity (“MFI”) readings were quantified for each sample analyzed by flow cytometry. Background MFI was subtracted from all data points. Percent inhibition was reported by calculating the percent value of binding of full length human vWF to platelets in the presence of aptamer at a given concentration relative to binding in the absence of any aptamer (see FIG. 7). IC50 values were determined by fitting the percent inhibition of vWF binding to platelets as a function of aptamer concentration to the equation: % inhibition=% inhibitionmax/(1+IC50/aptamer conc.)
On the technique in general: In flow cytometry, cells or beads pass a laser one at a time.

Data set [2] has as its system full length human vWF (SEQ ID NO 7). The data set can be described thus: dot blot KD determination and extent of binding, full length human vWF.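 Also: dot blot binding of aptamers to full length human vWF across a protein titration, incubated 30 minutes at room temperature in 1x DPBS with BSA.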 As to conditions: rRdY minimers; 8 point titration 0-300 nM; read-out: Full length human vWF KD.
Procedure: Based on this initial screen, KDs were determined for 3 of the vWF dependent binding sequences using the dot blot assay. […] A 12 point protein titration was used in the dot blot assay (300 nM, 100 nM, 30 nM, 10 nM, 3 nM, 1 nM, 300 pM, 100 pM, 30 pM, 10 pM, 3 pM, 0 pM) in 1×DPBS plus 0.1 mg/mL BSA at room temperature for 30 minutes.
An 8 point protein titration was used in the dot blot binding assay (100n M, 30 nM, 10 nM, 3 nM, 1 nM, 300 pM, 100 pM, 0 pM)) in 1× Dulbecco's PBS containing 0.1 BSA (final volume of 50 uL) for 30 minutes at room temperature.
Data set [3] concerns rabbit vWF A1 domain (SEQ ID NO 6). The data set can be described thus: 3-point dot blot screen, rabbit vWF A1 domain. In kind it is binding. To be noted: 3-point dot blot screen, 20 nM rabbit vWF A1 domain; ratio of fraction of aptamer bound with target protein to fraction bound without protein. The method in brief:
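Rabbit vWF A1 domain binding was screened by dot blot using three conditions: no target protein, human vWF, and rabbit vWF A1 domain at 100 nM (20 nM in the screen run twice). Radiolabeled aptamer bound to nitrocellulose was quantified, and results are expressed as the ratio of bound fraction with protein to bound fraction without protein.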

The subject of the next data set is full length human vWF. The data set can be described thus: 3-point dot blot screen, full length human vWF. As to conditions: 20 nM full length human vWF, ratio of fraction of aptamer bound with target protein to fraction bound without protein. The format is binding. The source says:
When a significant positive ratio of binding of DNA in the presence of human or rabbit vWF A1 domain versus in the absence of protein was seen, the pools were cloned using the TOPO TA cloning kit (Invitrogen Cat. #45-0641, Carlsbad, Calif.) according to the manufacturer's instructions. Round 7 and 11 pool templates were cloned and sequenced (218 total sequences), producing 146 unique clones within 12 sequence families of which sequences from six families show vWF target binding activity. All unique clones were assayed twice in a 3-point dot blot screen (no protein target control, 20 nM full length human vWF (Calbiochem Cat. #681300, La Jolla, Calif.), or 20 nM rabbit vWF A1 domain. The data is presented in the third and fourth columns of Table 17 below as the ratio of the fraction of the aptamer bound to the nitrocellulose in the presence of the target protein to the fraction of aptamer bound in the absence of the target protein.

The mark [4] stands for this setting: read-out: Inhibition of full length hVWF binding in FACS assay, Average IC50.
Where [5] appears, read: units in the cell: lower bound pM, upper bound nM, read-out: Inhibition of full length hVWF binding in FACS assay, IC50 range.

Numbering of substitutions follows the chain as printed. Where two headings read alike, the source gives them in different places. Oligonucleotides are written 5' to 3', each unit as a sugar letter and its base; * is a phosphorothioate linkage, no mark a phosphodiester; rarer units and linkages stand in square brackets, end groups in braces. Plain capitals give the bases only. d = 2'-deoxy (DNA); r = 2'-OH (RNA); f = 2'-fluoro

rabbit vWF A1 domain (SEQ ID NO 6), sequence (as listed by the source): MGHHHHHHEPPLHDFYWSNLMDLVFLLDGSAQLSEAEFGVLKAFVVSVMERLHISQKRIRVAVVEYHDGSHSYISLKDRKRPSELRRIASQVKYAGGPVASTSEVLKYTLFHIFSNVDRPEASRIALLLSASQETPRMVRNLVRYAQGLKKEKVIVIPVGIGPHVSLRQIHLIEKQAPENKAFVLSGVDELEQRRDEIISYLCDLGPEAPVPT

For “GGACCACCCUCGCAAGCAUUGAGAAAUGACUUGUGCCGCUGGUCC (rGrGrAfCfCrAfCfCfCfUfCrGfCrArArGfCrAfUfUrGrArGrArArAfUrGrAfCfUfUrGfUrGfCfCrGfCfUrGrGfUfCfC) [SEQ ID NO 172, minimized rRfY aptamer]”, in data set [1] (setting [4]), the IC50 (in general, the concentration that gives 50% inhibition) turned out to be 4300 pM. Turning to “GGACCACCCUCGCAAGCAUUUUAAGAAUGACUUGUGCCGCUGGUCC (rGrGrAfCfCrAfCfCfCfUfCrGfCrArArGfCrAfUfUfUfUrArArGrArAfUrGrAfCfUfUrGfUrGfCfCrGfCfUrGrGfUfCfC) [SEQ ID NO 169, minimized rRfY aptamer]”, the IC50 is 6900 pM in data set [1] (setting [4]) and 103 to 17000 pM in data set [1] (setting [5]). Turning to “GGAGCCACACGACATTGGCGAGAGCCACGCATGGCTCC (chemistry not given here) [SEQ ID NO 194, minimized rRdY aptamer]”, the “Inhibition of full length hVWF binding in FACS assay, IC50 range” value (from here on “Inhibition of full length hVWF binding”) in data set [1] is on record as “no activity”. As for “GGAGCCACACGACATTGGCGGGTTGTAATTACCACGCATGGCTCC (rGrGrArGdCdCrAdCrAdCrGrAdCrAdTdTrGrGdCrGrGrGdTdTrGdTrArAdTdTrAdCdCrAdCrGdCrAdTrGrGdCdTdCdC) [SEQ ID NO 189, minimized rRdY aptamer]”, the Kd (in general, the free concentration of one partner at which half of the binding sites on the other are occupied at equilibrium, for simple one-to-one binding) in data set [2] stood at 1 nM. In addition, the results for the IC50 in data set [1] (setting [4]) and in data set [1] (setting [5]) were 1100 pM and 564 to 1600 pM, respectively. Take “GGAGCCACACGAGAGTGGCGGGTTGTAATTACCACGCATGGCTCC (chemistry not given here) [SEQ ID NO 196, minimized rRdY aptamer]”: the “Inhibition of full length hVWF binding” value in data set [1] was “no activity”.

In the case of “GGAGCGCACTCAGCCACACGACATTGGCGGGTTGTAATTACCACGCATGGCTG (chemistry not given here) [SEQ ID NO 186, minimized rRdY aptamer]”, the IC50 in data set [1] (setting [4]) is 1300 pM; in data set [1] (setting [5]), 971 to 2200 pM. For “GGAGCGCACTCAGCCACGGGGTGGGTAGACGGCGGGTATGTGGCT (chemistry not given here) [SEQ ID NO 177, minimized rRdY aptamer]”, in data set [1] (setting [4]), the IC50 worked out at 3000 pM. In the case of “GGAGCGCACUCAGCCACCCUCGCAAGCAUUUUAAGAAUGACUUGUGCCGCUGGCU G (rGrGrArGfCrGfCrAfCfUfCrArGfCfCrAfCfCfCfUfCrGfCrArArGfCrAfUfUfUfUrArArGrArAfUrGrAfCfUfUrGfUrGfCfCrGfCfUrGrGfCfUrG) [SEQ ID NO 165, minimized rRfY aptamer]”, the figures for the IC50 in data set [1] (setting [4]) and in data set [1] (setting [5]) were 6400 pM and 562 to 14400 pM, respectively. Regarding “GGAGCTCCAGTGTTTTATCTAATAACCGTGCGGTGCCTCCGTGAGCTCC (chemistry not given here) [SEQ ID NO 209, minimized DNA aptamer]”, the “Inhibition of full length hVWF binding” value in data set [1] was “no activity”.

On to “GGAGCTGCGGTTTGGTCGACGTCAGCTCC (DNA, backbone not given here) [SEQ ID NO 210, minimized DNA aptamer]”, for which the “Inhibition of full length hVWF binding” value in data set [1] is “no activity”. On the same count and under the same terms, the entry for “GGTAGCGACTCTGTGGAGCTGCGGTTTGG (DNA, backbone not given here) [SEQ ID NO 211, minimized DNA aptamer]” is “no activity”.

B1: AMX.236.G1 (nucleic acid)
chain: CTACCTACGATCTGACTAGCCTCAGATTGACTCCGGCTGACTTGTTTTAATCTTCTGAGTGCTTACTCTCATGTAGTTCC
modifications: DNA, backbone and methylation of C not given here
Take B1: the IC50 in data set [1] (setting [4]) worked out at 46000 pM.

B2: AMX238.F5: DNA SELEX 2 aptamer clone (nucleic acid)
DNA: CTACCTACGATCTGACTAGCGGAATGAGAAGCTGGTGGATTGCTCAGGTCTGCTGGCTGCTTACTCTCATGTAGTTCC
modifications: DNA, backbone not given here
notes: DNA SELEX 2 aptamer clone
With B2, the “Screen Rabbit/No Protein” value in data set [3] came to 4.40. In addition, in the data set on full length human vWF, the “Screen- Human/No Protein” value was determined as 1.05.

B3: AMX236.A11: DNA SELEX 2 aptamer clone (nucleic acid)
chain: CTACCTACGATCTGACTAGCTTGGTAGCGACTCTGTGGAGCTGCGGTCTGGCCGACGTCAGCTTACTCTCATGTAGTTCC
modifications: DNA, backbone not given here
notes: DNA SELEX 2 aptamer clone
For the molecule B3, the “Screen Rabbit/No Protein” value in data set [3] is given as 2.02. For the same molecule, the “Screen- Human/No Protein” value in the data set with full length human vWF turned out to be 2.02.

B4: AMX236.C12: DNA SELEX 2 aptamer clone (nucleic acid)
chain: B3 chain with T34C, C48T, C52T
modifications: DNA, backbone not given here
notes: DNA SELEX 2 aptamer clone
Regarding B4, the “Screen Rabbit/No Protein” value in data set [3] is 2.24. Also, in the data set with full length human vWF, the “Screen- Human/No Protein” value was determined as 1.99.

B5: AMX236.E6: DNA SELEX 2 aptamer clone (nucleic acid)
chain: B3 chain with T32C, C48T, C52T
modifications: DNA, backbone not given here
notes: DNA SELEX 2 aptamer clone
Regarding B5, the “Screen Rabbit/No Protein” value in data set [3] is on record as 1.49. In the data set on full length human vWF, the “Screen- Human/No Protein” value was determined as 1.31.

B6: AMX237.H8: DNA SELEX 2 aptamer clone (nucleic acid)
DNA: B3 chain with C33T, C48T, C52T, G57A
modifications: DNA, backbone not given here
notes: DNA SELEX 2 aptamer clone
Take B6: the “Screen Rabbit/No Protein” value in data set [3] was 1.41. The “Screen- Human/No Protein” value in the data set with full length human vWF was found to be 1.21.

B7: AMX236.G4: DNA SELEX 2 aptamer clone (nucleic acid)
chain: B3 chain with C33T, C41A, C48T, C52T, C53T
modifications: DNA, backbone not given here
notes: DNA SELEX 2 aptamer clone
As for B7, the “Screen Rabbit/No Protein” value in data set [3] is recorded as 1.72. In addition, the “Screen- Human/No Protein” value in the data set on full length human vWF came out at 1.70.

B8: AMX237.H10: DNA SELEX 2 aptamer clone (nucleic acid)
DNA: B3 chain with T34A, T36A, C48T, C52T
modifications: DNA, backbone not given here
notes: DNA SELEX 2 aptamer clone
Turning to B8, in data set [3], the “Screen Rabbit/No Protein” value is reported as 1.94. Further, the “Screen- Human/No Protein” value in the data set with full length human vWF is 1.71.

B9: AMX237.D5: DNA SELEX 2 aptamer clone (nucleic acid)
DNA: B3 chain with T32A, C48T, C52T, C53T
modifications: DNA, backbone not given here
notes: DNA SELEX 2 aptamer clone
As to B9, in data set [3], the “Screen Rabbit/No Protein” value turned out to be 1.48. Besides, in the data set on full length human vWF, the “Screen- Human/No Protein” value came to 1.41.

B10: AMX236.C1: DNA SELEX 2 aptamer clone (nucleic acid)
chain: CTACCTACGATCTGACTAGCGGAATGAGAATGTTGGTGGATTGCTCAGGTCTGCTGGCTGCTTACTCTCATGTAGTTCC
modifications: DNA, backbone not given here
notes: DNA SELEX 2 aptamer clone
In the case of B10, the “Screen Rabbit/No Protein” value in data set [3] was determined as 3.28. In the data set on full length human vWF, the “Screen- Human/No Protein” value came out at 1.03.

B11: AMX237.B12: DNA SELEX 2 aptamer clone (nucleic acid)
DNA: B10 chain with T33C, T34A
modifications: DNA, backbone not given here
notes: DNA SELEX 2 aptamer clone
Consider B11, for which the “Screen Rabbit/No Protein” value in data set [3] stood at 4.67. Also, in the data set on full length human vWF, the “Screen- Human/No Protein” value is given as 1.13.

B12: AMX238.A11: DNA SELEX 2 aptamer clone (nucleic acid)
DNA: B10 chain with A30G
modifications: DNA, backbone not given here
notes: DNA SELEX 2 aptamer clone
On to B12, for which, in data set [3], the “Screen Rabbit/No Protein” value came out at 4.54. In the data set with full length human vWF, the “Screen- Human/No Protein” value is reported as 0.85.

B13: AMX238.A6: DNA SELEX 2 aptamer clone (nucleic acid)
DNA: B10 chain with T33C, T34A, G36A
modifications: DNA, backbone not given here
notes: DNA SELEX 2 aptamer clone
Consider B13, for which the “Screen Rabbit/No Protein” value in data set [3] amounted to 3.47. In the data set on full length human vWF, the “Screen- Human/No Protein” value turned out to be 0.92.

B14: AMX237.C1: DNA SELEX 2 aptamer clone (nucleic acid)
DNA: B10 chain with A29G, T33C
modifications: DNA, backbone not given here
notes: DNA SELEX 2 aptamer clone
For B14, the “Screen Rabbit/No Protein” value in data set [3] worked out at 3.47. Moreover, in the data set with full length human vWF, the “Screen- Human/No Protein” value came out at 0.76.

The values above are taken from patent US7998940B2, “Aptamers to von Willebrand factor and their use as thrombotic disease therapeutics” (Archemix Corp., priority 2004, dated 2011).
